Assay results: the DeepSol protein solubility set

experiment: soluble on expression in E. coli; label from the status in PepcDB or PDB records

Question: Which “soluble on expression in E. coli” value does the source give for “MGSDKIHHHHHHMATPETILSVKDLRVRFRTLDGAVEAVKGINIHVNAGETVAVVGESGSGKSQTMMAAMSLLASNGEATGSVDYRGRNLLTLSKSDLNKVRGAKISMIFQEPMTSLDPLYSIGNQLIEPIRRHRGLNAAEAREEALKLLRLVHIPDPERRMKSYPHEMSGGQRQRVMIAMALANDPDILIADEPTTALDVTIQAQILMLLAELQRKLGMAIVFITHDLGIVRRFADRVYVMRQGEVVEEGEAGAIFANPQHAYTKMLLAAEPTGSKAAPPANAPVVLEGRHVEVTFKIGGGFLAGEPLMLRAVDDISIRLQRNQTIGIVGESGSGKSTLGRALLRLLPSDGLIRFGDRDISTADRQAMRPLRRQMQLVFQDPFGSLSPRMTVGQVITEGLLVHEPNLSGKQRDQRAVEALREVGLDPNARNRYPHEFSGGQRQRIAIARAMILKPKMVVLDEPTSALDRSVQKQIVELLRKLQADHELSYLFISHDLSVVRAMADYIIVMKQGKIVEEGPTEAIFSNPQHVYTQTLMAAAIDVTRFRLSA” here?
Answer: not soluble

Question: Which “soluble on expression in E. coli” value does the source give for “TSHHHHHMKKIEHKMVAVNGLNMHLAELGEGPTILFIHGFPELWYSWRHQMVYLAERGYRAVAPDLRGYGDTTGAPLNDPSKFSILHLVGDVVALLEAIAPNEEKVFVVAHDWGALIAWHLCLFRPDKVKALVNLSVHFSKRNPKMNVVEGLKAIFGEDHYISRFQVPGEIEAEFAPIGAKSVLKKILTYRDPAPFYFPKGKGLEAIPDAPVALSSWLSEEELDYYANKFEQTGFTGAVNYYRALPINWELTAPWTGAQVKVPTKFIVGEFDLVYHIPGAKEYIHNGGFKKDVPLLEEVVVLEGAAHFVSQERPHEISKHIYDFIQKF” here?
Answer: soluble

Question: For “GSHMGHIIDISKWNGDINWSIAKQHIDFIIARVQDGSNYVDPLYKGYVQAMKQHGIPFGNYAFCRFVSIADAKKEAQDFWNRGDKSATVWVADVEVKTMNDMRAGTQAFIDELYRLGAKKVGLYVGHHMYTPFGMANVKSDFVWIPRYGGNKPAYPCDIWQYTETGNVPGIGKCDLNSLIGNKSLSWFTESA”, which “soluble on expression in E. coli” value is on record?
Answer: soluble

Question: With “MTARYIAIDWGSTNLRAWLYQGDHCLESRQSEAGVTRLNGKSPAAVLAEVTTDWREENTPVVMAGMVGSNVGWKVAPYLSVPARFSSIGEQLTSVGDNIWIIPGLCVSHDDNHNVMRGEETQLIGARALAPSSLYVMPGTHCKWVQADSQQINDFRTVMTGELHHLLLNHSLIGAGLPPQENSADAFAAGLERGLNAPAILPQLFEVRASHVLGTLPREQVSEFLSGLLIGAEVASMRDYVTHQHAITLVAGTSLTARYQQAFQAMGCDVAAVAGDTAFQAGIRSIAHAVAN” as the sequence, how does the “soluble on expression in E. coli” value read?
Answer: soluble

Question: For “MPSTLQGTFHTYRIIRRLGQGAFGEVSLAGVLETGEVVALKRIHIRNTGGIPDVVVREIKALQSVSHPNVVALLDVFPKGQAIYLVQEYCTTDLAALLRRLPAPPPERIAKGLMLQLCRGLEALHAEGIMHRDVKPSNTLLSAASGTAKLADCGLARPLDGGERPAYTHAVATRWYRAPELLYGARAYGPAVDVWALGLVFAELLGLSPLVPGDNDIDQLGRVIATFGSMEPVWLGVRALPDWGKIAFPHCEPLPLGDLLPGAPAAALEFLAAFLRYDPAKRITAACAVRSTYLTATQPL”, which “soluble on expression in E. coli” value is on record?
Answer: not soluble

Question: For “MCLAIPSVVIDIFEEDGEKYALAEYKGVKQKAKLALIEGVEIGDYVLIHTGYALEKMSEDEAKLSLDAWEELFDVLDEMDGVKKENSE”, which “soluble on expression in E. coli” value is on record?
Answer: not soluble

Question: With “MASSINNRKPSEIFKAQALLYKNMYAFVDSMSLKWSIEMNIPNIIHNHGKPITLSNLVSILQIPSTKVDNVQRLMRYLAHNGFFEIITNQELENEEEAYALTVASELLVKGTELCLAPMVECVLDPTLSTSFHNLKKWVYEEDLTLFAVNLGCDLWEFLNKNPEYNTLYNDALASDSKMINLAMKDCNLVFEGLESIVDVGGGNGTTGKIICETFPKLTCVVFDRPKVVENLCGSNNLTYVGGDMFISVPKADAVLLKAVLHDWTDKDCIKILKKCKEAVTSDGKRGKVIVIDMVINEKKDENQLTQIKLLMNVTISCVNGKERNEEEWKKLFIEAGFQDYKISPFTGLMSLIEIYP” as the sequence, how does the “soluble on expression in E. coli” value read?
Answer: soluble

Question: With “MNLPAHTALFTPSWHAELELGYGRFYDCTRPTQRRHKGPLRVQKHLYAEGPEVCQHIIVHPPGGIAGGDRLDISVNVGAHAWAQLTSPGAAKWYRAASPAFQQLELHVQPGATLEWLPQETIVFSNAQAELTTRIELHGDARLCYWDVVALGRPASGERFEHGHFQSHLDIRRDGTLLWHERQRIIGADGLLDSPIGLDGKTVFATLLLTGDVDSDLLEVCRSLSMPSPVRGNLTQLPGLIVARCLADEALHARAWLIEIWKRLRPALLGREAVMPRIWNTLEHHHHHH” as the sequence, how does the “soluble on expression in E. coli” value read?
Answer: not soluble

Question: For “GSGSRMKTVDKSKTLTKFEEFFSLQDYKDRVFEAIEKYPNVRSIEVDYLDLEMFDPDLADLLIEKPDDVIRAAQQAIRNIDRLRKNVDLNIRFSGISNVIPLRELRSKFIGKFVAVDGIVRKTDEIRPRIVKAVFECRGCMRHHAVTQSTNMITEPSLCSECGGRSFRLLQDESEFLDTQTLKLQEPLENLSGGEQPRQITVVLEDDLVDTLTPGDIVRVTGTLRTVRDERTKRFKNFIYGNYTEFLEQEFEELQISEEDEEKIKELAGDPNIYEKIIR”, which “soluble on expression in E. coli” value is on record?
Answer: soluble

Question: Which “soluble on expression in E. coli” value does the source give for “MSLACGEFSLIARYFDRVRSSRLDVETGIGDDCALLNIPEKQTLAISTDTLVAGNHFLPDIDPADLAYKALAVNLSDLAAMGADPAWLTLALTLPEVDEPWLEAFSDSLFALLNYYDMQLIGGDTTRGPLSMTLGIHGYIPAGRALKRSGAKPGDWIYVTGTPGDSAAGLAVLQNRLQVSEETDAHYLIQRHLRPTPRILHGQALRDIASAAIDLSDGLISDLGHIVKASGCGARVDVDALPKSDAMMRHVDDGQALRWALSGGEDYELCFTVPELNRGALDVAIGQLGVPFTCIGQMSADIEGLNFVRDGMPVTFDWKGYDHFATPEGGSHHHHHH” here?
Answer: soluble

Question: For “MGAQYLKRVYLMSVIAETNEALLAKIKALCGDYLREVDTHPGQWDDSSVRRLVRNPPAVYVAWLGQQPNNNPHTVTARWGVFVVAEVLNGQRRNAVGIYQIVETLTAGLHKQRIAPSGMFELQTVQNLWSDTQSGMGVAVYGMYFNAVQPLPDMTSDDTLCDFKIYDHTFNQDKDEHTIDGKTRLTVELPTQSD”, which “soluble on expression in E. coli” value is on record?
Answer: not soluble

Question: With “MGSDKIHHHHHHMQFDNLLSRADDGTLQVLLGNAAVRLIKLLDPSLVTPSRLREILMELHTPASLLLTKDSRAMLLDLLRPEQAKILATIMQVPLTGDIFETLKKTSIRHGSNRERALFDFFELELPQPEDSVQSSSLELAVSNYPLFAHQRIAARKVKNYFKQEPRRVLLHMPTGSGKTRTAMNIIADHLRSVEPTIVVWLAYSEELCEQAATEFQKAWQCLGDRQVSLYRFWGEHEIDVDKLEDGIVVAGLSKVYNRTKQSIQFINRLGKVSSLVIIDEAHQAIAETYKLVLDALVVPYENTALLGLTATPGRTWSDINVDTELSEFFAKNKVTLEVSGYSNPVDYLISEEYLAKPNFRSLFYKNGLKLTQKDLERIQQELEIPQHILEQLADDEQRNLSIIIEVEELAKRHQRILIFGISIKHSKLLATVLRARGLQANVVTGDTPLLERTRLINSFKDDSDETKIICNYGVLTTGFDAPRTSAAVIARPTKSLVLYSQMVGRAIRGVKAGGNVTAEIVTVVDSALRGFGSLEEAFSNWEDVWHKEKI” as the sequence, how does the “soluble on expression in E. coli” value read?
Answer: not soluble

Question: For “MGSDKIHHHHHHMSHDTVSPGLSLREIRAILAVAEQRGFSSAARRLNISQSSLSRTIHRAESVLAIRLFQRGWGGAEPTPEGEIVRQHCTQVMAELLHERDALMAAGLTRLPLPLDLRWRDLACVAAVVHTGKTTTAAKWLRTSQSSVSRTLGAISVRLGSPLFQRSGEGLRAEPLAERLVALRDRMCARMQPLQERLGHLAGEVTGRLAVGMTPFCEQERVAQAFGDLLVAYPQLRLSAVTGSYVMLTDALRCGEIDLVVGLLRELGEDDELAELPLAEEAITVLARSDHPCAVRSVSMEDLARQTWIVAPAGTPIRAYFERLFLGMGKTPPVQTCEIVTFHLAESMVRESQSLALLLYSPRKVRELPPGLVRVPVTLPDNRRHIGVTYRRDAGLSFTQRQFIDGLAKRFASDDDAEGNAP”, which “soluble on expression in E. coli” value is on record?
Answer: not soluble

Question: For “MVQFLAQMPTGTSSFQAAITENEEGRLFEKYGQLLQESPPASNRPSLGIEGASGLPRPGMCPGRDCSPGSCLAALCPRPPPLYLMVPGKASGMAEAELRATLPCSCGSIPLSTPKR”, which “soluble on expression in E. coli” value is on record?
Answer: soluble

Question: With “MTTPSPQEISTVTLNSLSKEERKKAILALQTKKNEIKLVIDEHQKKLAEFRQSIPDGCCEMFENEKKIRLKHSSTAELLPHLQKVGSSSVDKEKMINNIRQRVEVQVADQETFKSIEERNELLRRENENLKKEVNTVAAELLQEFESYE” as the sequence, how does the “soluble on expression in E. coli” value read?
Answer: not soluble

Question: With “SNAKKVCVDTCVVIDGRITELIERGKLKDATIIIPEAVVSELEYQANMGREIGYKGIEELRKLIEKASEHNIKVEYYGERPTREEIFLAKSGEIDAMIRKVAKETNSILLTSDWIQYNLAKAQGIEAYFLEAAEEEVELVLD” as the sequence, how does the “soluble on expression in E. coli” value read?
Answer: soluble

Question: With “MWIIEAEGDILKGKSRILFPGTYIVGRNVSDDSSHIQVISKSISKRHARFTILTPSEKDYFTGGPCEFEVKDLDTKFGTKVNEKVVGQNGDSYKEKDLKIQLGKCPFTINAYWRSMCIQFDNPEMLSQWASNLNLLGIPTGLRDSDATTHFVMNRQAGSSITVGTMYAFLKKTVIIDDSYLQYLSTVKESVIEDASLMPDALECFKNIIKNNDQFPSSPEDCINSLEGFSCAMLNTSSESHHLLELLGLRISTFMSLGDIDKELISKTDFVVLNNAVYDSEKISFPEGIFCLTIEQLWKIIIERNSRELISKEIERLKYATASNSTPQKIAAALEHHHHHH” as the sequence, how does the “soluble on expression in E. coli” value read?
Answer: soluble

Question: With “MAIRVIGTGFGRTGTDSMREALTILGFGPCHHMSEVMGNEDQKRLWRALAKGAAPDWNQLFAGYASCIDWPSAHYWRDLIEFYPKARVILTYRSPESWWASFEKTILAGISQSTDQESLGLALISRQVFDGRPHDRANAIAVYEANVRAVIATVPPSRLLVHNLGDGWKPLCLHLDVPLEHHHHHH” as the sequence, how does the “soluble on expression in E. coli” value read?
Answer: not soluble

Question: With “MNAPVKFEYFKNPKNRELTAVELEAFAKELDQIKQEVLDDIGEKDAKYIRRVYSAVRYSSMLGRACLFAGWFPPAWILGTGLLGFSKIMENMELGHNVMHGQYDWMNDPKFNGQTYEWDTVGTADNWRQTHNYKHHTYTNIKGIDDDIGYGLLRLFPEQRWKPGFLLQPIYSIPFCMLFQWGVAIQNLEIGKLIYKRKTWKQFKQECKPTQKKIGKQLFKDYVFFPLIAGPAALPVFTGNLVANGIRNAWTFSIIFCGHFTKDVEVFPKTVLQNETRGHWYMRQIRGSSNLTGSEAFHILTGHLSHQIEHHLFPDVPARRYRQMAPKVEAVCKKYGLNYNNASLFKQYGQVLGRIVKYAFPFKKLEHHHHHH” as the sequence, how does the “soluble on expression in E. coli” value read?
Answer: soluble

Question: With “SLDEAEMKAVNIHDGIDGTLMILHHRLKAAIRRPKIEIVKDYAKLPLIECYPGKLNQVFMNILANAIDALEEGMGNEEIPPPTGQITIRTEVLDNQWVVIRIADNGPGMKEEVIRRIYDPFFTTKDVGKGTGLGMAISYQIVVDKHGGMLKCRSQPGEGTEFWIQIPVNCALADAAEEG” as the sequence, how does the “soluble on expression in E. coli” value read?
Answer: soluble

Question: For “MSATASVATRHDWSLAEVRALFEQPFNDLLFQAQTVHRAHFDPNRVQVSTLLSIKTGACPEDCKYCPQSGHYNTGLDKEKLMEVQKVLEAAAEAKAIGSTRFCMGAAWKHPSAKDMPYVLEMVKGVKKLGLETCMTLGRLTQEQTQALADAGLDYYNHNLDTSPEFYGNIITTRTYSERLQTLAYVREAGMKICSGGILGMGESVDDRAGLLIQLANLPEHPESVPINMLVKVKGTPLAEEKDVDPFDFIRTLAVARIMMPKSHVRLSAGREQMNEQMQALAFMAGANSIFYGEKLLTTKNPQAEKDMQLFARLGIKPEEREEHADEVHQAAIEQALVEQRESKLFYNAASA”, which “soluble on expression in E. coli” value is on record?
Answer: not soluble
